Here are results for one molecule from article PMC6554723.

The target in the experiment is dansyl-CaM (dansylated calmodulin), P0DP29. Put plainly: other fluorescence titration. The following applies: remark: other sources report otherwise.

B1: purified recombinant RGS14 (Regulator of G Protein Signaling 14), O08773 1-544 (natural protein)
chain: MPGKPKHLGVPNGRMVLAVSDGELTSTSGSQAQGEGRGSSLSIHSLPSGPSSPFSTDEQPVASWAQSFERLLQDPRGLAYFTEFLKKEFSAENVTFWQACERFQQIPASDTKQLAQEAHNIYHEFLSSQALSPVNIDRQAWLSEEVLAQPRPDMFRAQQLQIFNLMKFDSYARFVKSPLYQECLLAEAEGRPLREPGSSHLGSPDTARKKPKLKPGKSLPLGVEELGQLPLAEGRPLRKSFRREMPGGAVNSALRRESQGSLNSSASLDLGFLAFVSSKSESHRKSLGSGEGESESRPGKYCCVYLPDGTASLALARPGLTIRDMLAGICEKRGLSLPDIKVYLVGKEQKALVLDQDCTVLADQEVRLENRITFQLELVGLERVVRISAKPTKRLQEALQPILAKHGLSLDQVVLHRPGEKQLVDLENLVSSVASQTLVLDTLPDAKTREASSIPPCRSQGCLPRTQTKDSHLPPLSSSLSVEDASGSTGKRQTCDIEGLVELLNRVQSSGAHDQRGLLRKEDLVLPEFLQLPSQRPGSQEAPP
modifications: here or on the partner: dansyl label (site not stated)
For orientation: stoichiometry N means the number of molecules, sites or subunits per partner or assembly. B1 gave a stoichiometry N of 1.
